{
  "source": "paper PMC12449476",
  "about": "“Transient ligand contacts of the intrinsically disordered N-terminus of neuropeptide Y2 receptor regulate arrestin-3 recruitment” (Nature Communications, 2025)",
  "assay_in_all_cases": "NanoBRET equilibrium ligand binding",
  "key": {"Nluc-Y2R-eYFP D/E35-39K": {"molecular_target": "T1, Nluc-Y2R-eYFP D/E35-39K (Homo sapiens, UniProt P49146, D35K/E37K/E39K)", "T1 construct": "expressed in transfected cells; host or cells: HEK293, transiently transfected, membrane preparations", "T1 sequence (P49146 1-381 D35K/E37K/E39K)": "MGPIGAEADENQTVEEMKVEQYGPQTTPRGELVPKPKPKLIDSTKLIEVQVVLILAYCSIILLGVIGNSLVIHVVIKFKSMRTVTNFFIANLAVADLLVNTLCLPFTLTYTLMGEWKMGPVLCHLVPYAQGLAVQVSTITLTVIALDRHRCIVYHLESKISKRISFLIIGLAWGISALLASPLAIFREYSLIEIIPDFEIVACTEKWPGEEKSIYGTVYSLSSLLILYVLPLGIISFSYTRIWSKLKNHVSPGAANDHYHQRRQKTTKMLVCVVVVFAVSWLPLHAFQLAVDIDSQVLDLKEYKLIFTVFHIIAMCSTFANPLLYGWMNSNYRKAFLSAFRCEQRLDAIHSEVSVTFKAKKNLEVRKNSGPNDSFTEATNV", "experimental": "(§1) Briefly, for each data point, membranes containing 0.03 μg total protein were suspended in ice-cold BRET binding buffer (Hank’s balanced salt solution (HBSS) containing 20 mM HEPES (pH 7.4), 0.1% bovine serum albumin (BSA)). The assay was performed in solid black 96-WP with a total assay volume of 100 μL in technical duplicate or triplicate. […] To determine unspecific binding, 100 µM of the Y2R antagonist JNJ-31020028 (Selleck Europe) were added to each well. […] To start the dissociation measurement, the antagonist JNJ-31020028 was added to a final concentration of 50 µM (20 µL) using the built-in injector system of the plate reader and the BRET decay was measured for 20 min. Raw BRET was calculated as the ratio of fluorescence to luminescence, and the background value of the unspecific binding controls was subtracted to obtain the netBRET signal."}, "[1]": {"molecular_target": "T2, Nluc-Y2R-eYFP D42A-S43A-T44A (Homo sapiens, UniProt P49146, D42A/S43A/T44A)", "T2 construct": "expressed in transfected cells; host or cells: membrane preparations of transiently transfected HEK293", "T2 sequence (P49146 1-381 D42A/S43A/T44A)": "T1 sequence (P49146 1-381 D35K/E37K/E39K) with K35D, K37E, K39E, D42A, S43A, T44A", "experimental": "as §1"}, "Nluc-Y2R-eYFP E15-20K": {"molecular_target": "T3, Nluc-Y2R-eYFP E15-20K (Homo sapiens, UniProt P49146, E15K/E16K/E20K)", "T3 construct": "expressed in transfected cells; host or cells: membrane preparations of transiently transfected HEK293", "T3 sequence (P49146 1-381 E15K/E16K/E20K)": "T1 sequence (P49146 1-381 D35K/E37K/E39K) with E15K, E16K, E20K, K35D, K37E, K39E", "experimental": "as §1"}, "Nluc-Y2R-eYFP Δ2-41": {"molecular_target": "T4, Nluc-Y2R-eYFP Δ2-41 (Homo sapiens, UniProt P49146)", "T4 construct": "expressed in transfected cells; host or cells: membrane preparations of transiently transfected HEK293", "T4 sequence (P49146 with tags, fused parts or gaps)": "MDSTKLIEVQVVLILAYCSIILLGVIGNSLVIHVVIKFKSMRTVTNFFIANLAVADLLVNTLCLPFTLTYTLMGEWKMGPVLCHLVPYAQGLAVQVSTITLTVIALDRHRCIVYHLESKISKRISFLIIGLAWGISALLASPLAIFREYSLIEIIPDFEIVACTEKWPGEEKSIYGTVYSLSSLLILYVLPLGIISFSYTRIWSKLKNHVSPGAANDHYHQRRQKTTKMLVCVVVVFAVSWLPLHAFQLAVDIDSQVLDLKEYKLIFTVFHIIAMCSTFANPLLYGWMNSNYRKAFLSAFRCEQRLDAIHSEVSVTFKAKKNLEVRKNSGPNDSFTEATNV", "experimental": "as §1"}},
  "note": "Changes are numbered by the printed parent chain.",
  "data": [
    {"substance": "K18-Tamra-NPY: tetramethylrhodamine(Tamra)-labeled peptide (K^18-Tamra-NPY)", "values": [
      {"measurement": "BRETmax", "setting": "Nluc-Y2R-eYFP D/E35-39K; HEK293 membranes, 10 min RT, mean, 95% CI 0.025 to 0.0287", "value": 0.0270},
      {"measurement": "Fraction high affinity", "setting": "Nluc-Y2R-eYFP D/E35-39K; mean, 95% CI 0 to 0.1938", "value": 0.0957},
      {"measurement": "KD, high replicates (log)", "setting": "Nluc-Y2R-eYFP D/E35-39K; replicate 1", "value": -9.38},
      {"measurement": "KD, low replicates (log)", "setting": "Nluc-Y2R-eYFP D/E35-39K; replicate 1", "value": -6.53},
      {"measurement": "KD, high replicates (log)", "setting": "Nluc-Y2R-eYFP D/E35-39K; replicate 2", "value": -9.46},
      {"measurement": "KD, low replicates (log)", "setting": "Nluc-Y2R-eYFP D/E35-39K; replicate 2", "value": -6.67},
      {"measurement": "KD, high replicates (log)", "setting": "Nluc-Y2R-eYFP D/E35-39K; replicate 3", "value": -10.11},
      {"measurement": "KD, low replicates (log)", "setting": "Nluc-Y2R-eYFP D/E35-39K; replicate 3", "value": -6.65},
      {"measurement": "BRETmax", "setting": "[1]; HEK293 membranes, 10 min RT, mean, 95% CI 0.0040 to 0.0080", "value": 0.0060},
      {"measurement": "Low-affinity state affinity reduction vs wild-type", "setting": "[1]; NanoBRET, HEK293 membranes", "value": "about three-fold reduced"},
      {"measurement": "Fraction high affinity", "setting": "[1]; mean, 95% CI 0.0649 to 0.2365, P<0.01 vs WT", "value": 0.1507},
      {"measurement": "KD, high replicates (log)", "setting": "[1]; replicate 1", "value": -9.81},
      {"measurement": "KD, low replicates (log)", "setting": "[1]; replicate 1", "value": -6.11},
      {"measurement": "KD, high replicates (log)", "setting": "[1]; replicate 2", "value": -11.68},
      {"measurement": "KD, low replicates (log)", "setting": "[1]; replicate 2", "value": -6.26},
      {"measurement": "KD, high replicates (log)", "setting": "[1]; replicate 3", "value": -9.11},
      {"measurement": "KD, low replicates (log)", "setting": "[1]; replicate 3", "value": -5.98},
      {"measurement": "BRETmax", "setting": "Nluc-Y2R-eYFP E15-20K; HEK293 membranes, 10 min RT, mean, 95% CI 0.0243 to 0.0371", "value": 0.0307},
      {"measurement": "Fraction high affinity", "setting": "Nluc-Y2R-eYFP E15-20K; mean, 95% CI 0.0705 to 0.0862", "value": 0.0783},
      {"measurement": "KD, high replicates (log)", "setting": "Nluc-Y2R-eYFP E15-20K; replicate 1", "value": -9.24},
      {"measurement": "KD, low replicates (log)", "setting": "Nluc-Y2R-eYFP E15-20K; replicate 1", "value": -6.58},
      {"measurement": "KD, high replicates (log)", "setting": "Nluc-Y2R-eYFP E15-20K; replicate 2", "value": -9.21},
      {"measurement": "KD, low replicates (log)", "setting": "Nluc-Y2R-eYFP E15-20K; replicate 2", "value": -6.52},
      {"measurement": "KD, high replicates (log)", "setting": "Nluc-Y2R-eYFP E15-20K; replicate 3", "value": -9.93},
      {"measurement": "KD, low replicates (log)", "setting": "Nluc-Y2R-eYFP E15-20K; replicate 3", "value": -6.58},
      {"measurement": "BRETmax", "setting": "Nluc-Y2R-eYFP Δ2-41; HEK293 membranes, 10 min RT, mean, 95% CI 0.5907 to 0.7133, P<0.0001 vs WT", "value": 0.6520},
      {"measurement": "Low-affinity binding constant reduction vs wild-type", "setting": "Nluc-Y2R-eYFP Δ2-41; NanoBRET, HEK293 membranes", "value": "about two-fold reduced"},
      {"measurement": "Fraction high affinity", "setting": "Nluc-Y2R-eYFP Δ2-41; mean, 95% CI 0.0357 to 0.0467", "value": 0.0412},
      {"measurement": "KD, high replicates (log)", "setting": "Nluc-Y2R-eYFP Δ2-41; replicate 1", "value": -9.51},
      {"measurement": "KD, low replicates (log)", "setting": "Nluc-Y2R-eYFP Δ2-41; replicate 1", "value": -6.16},
      {"measurement": "KD, high replicates (log)", "setting": "Nluc-Y2R-eYFP Δ2-41; replicate 2", "value": -9.76},
      {"measurement": "KD, low replicates (log)", "setting": "Nluc-Y2R-eYFP Δ2-41; replicate 2", "value": -6.18},
      {"measurement": "KD, high replicates (log)", "setting": "Nluc-Y2R-eYFP Δ2-41; replicate 3", "value": -9.64},
      {"measurement": "KD, low replicates (log)", "setting": "Nluc-Y2R-eYFP Δ2-41; replicate 3", "value": -6.21}
    ]}
  ]
}
